Values of other authors as cited in paper PMC9601870.

Biological target: Cys32 (UniProt position 33, FWAEWCGPCKM)
Conditions: not stated (thiol ionisation implies the reduced dithiol form; inferred)

**Q.** With Thioredoxin 1 (Trx) (Escherichia coli) as the substance, how does the pKa read?
**A.** 7.1–7.4
